The record followed here is the nanobody polyreactivity screen of Harvey et al. (2022).

The nature of this data set: yeast display, Sf9 membrane polyspecificity reagent, FACS + sequencing; frameworks hold sequencing errors. The essentials: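 A nanobody's polyreactivity label depends on the gate it was sorted from. Yeast display cells were stained with 10% biotinylated, detergent-solubilized Sf9 membrane reagent for 1 hour at 4 °C, enriched on streptavidin microbeads and sorted by FACS. The low and high (top ~1%) gates were set on anti-HA fluorescence for expression and streptavidin fluorescence for reagent binding.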
For the sequence “QVQLVESGGGLVQAGGSLRLSCAASGRILYSYAMGWYRQAPGKEREFVADIRRSGGSTYYADSVKGRFTISRDNAKNTVYLQMNSLKPEDTAVYYCAKSQSAKGGYDYWGQGTQVTVSS”, the “polyreactivity (PSR sort gate)” value was “high polyreactivity”. Then “QVQLVESGGGLVQAGGSLRLSCAASGFISDVYAMGCYRQAPGKERELVAVITWRGSTYYAYSVKGRFTISRDNAKNTVYLQMNSLKPEDTAVYYCAAESQGDWAFDYWGQGTQVTVSS”, with “low polyreactivity”; and “KVQLVESGGGLVQAGGSLRLSCAASGFTFLRYAMGGYRQAPGKERELVAAIRFSGGSTYYADSVKGRFTISRDNAKNNVYLQMNSLKPEDTAVYYCAAYIRSYGYDYWGQGTKVTVSS”, with “high polyreactivity”; and “QVQLVESGGGLVQAGGSLRLSCAASGSIFDYNAMGGYRQAPGKERELVAAISSGGSTYYADSVKGRFTISRDNAKNTVNLQMNSLKPEDTAVYYCAVKFWVVIQFDYWGQGTHVTVSS”, with “low polyreactivity”. Take “QVQLVESGGGLVQAGGSLRLSCAASGITFTWYGMGWYRQAPGKERELVAAISLTGARTYYADSVKGRFTISRDNAKNTVYLQMNSLKPEDTAVYYCNARPQGRGGTYLPRYDYWGQGTQVTVSS”: the “polyreactivity (PSR sort gate)” value is recorded as “high polyreactivity”. Then “QVQRVESGGGLVQAGGSLLLSCAASGSILYSYPMGWYRQAPGKERELVAAITGDGASTNYADSVKGRFTISRDNAKNTDYLQMNSLKPEDTAVYYCNAGRESDDVYEGSKRIGQFDYWGQGTLVTVSS”, with “low polyreactivity”. Take “QVQLVESGGGLVQAGGSLPLSCAASGLTIFVNAMGWYRQAPGKERELVATISGGGSTYYADSVKGRFTISRDNAKNTVYLQMNSLKREDTAVYYCNAADVGGPWWYPYTYNYWGQGTQVTVSS”: the “polyreactivity (PSR sort gate)” value was “low polyreactivity”. As for “QVQLKESGGCLVPSRGSLRQSCAASGSISGPHVKGWYRQAPGKEREFVAAINVGANTYYADNVKGRFTISRDNANNPGYLQMNSLKPEDTAVYFCAAVYFGDIGHEYWGQGTQVTVSC”, the “polyreactivity (PSR sort gate)” value is on record as “low polyreactivity”. As to “QVQLVESGGGLVQAGGSLRLSCAASGSTFPAYAMGWYRQAPGKERELVATITYTGGSTYYADSVKGRFTISRDNAKNTVYLQMNSLKPEDTAVYYCAADRWDQEDEFDYWGQGTQVTVSS”, the “polyreactivity (PSR sort gate)” value is recorded as “low polyreactivity”. Consider “QVQLVESGGGLVQAGGSLRLSCAASGGTFGSNAMGWYRQAPGKERELLAAISFSDGITYYADSVKGRFTISRDNAKNTVYLQMNSLKPEDSAVYYCAAELGTSRGGDTMEYWGQGTKVTVSS”, for which the “polyreactivity (PSR sort gate)” value is recorded as “high polyreactivity”. As to “QVQLVESGGGIVQAGGSLRLSCAASGRTFYGNAMGWYIQEPGKERELVAGISQNGGSTYYADSVKGRFTSSRDTAKNTVYLQMNRLKPEDSAVYYCAADSYYFTGYWAHPYDYWGEGTQVTVSS”, the “polyreactivity (PSR sort gate)” value is recorded as “high polyreactivity”. Turning to “QVQLVESGGGLVQAGGSLRLSCAASGSIFGKYAMGWYRQAPAKERELVAAISDSGSITYYADSVKGRFTISRDNAKNTVYLQMNSLKPEDTAVYYCAAEVKYYQSFKYDYWGQGTQVTVSS”, the “polyreactivity (PSR sort gate)” value is listed as “high polyreactivity”.

For “QVKLVETGGGLVQAGGSLRLSSAASGTTFVHYDMGWYRQAPGNERELVAAISRSGASTYYADSVKGRFTISRDHAKNTVYLQMNSLKPDDTAVYYCATIKYYGRRFNYWGQGTQVTVSS”, the “polyreactivity (PSR sort gate)” value was “high polyreactivity”. On to “QVQLVESGGGLVQAGGSLRLSCAASGRIFGTNAMGWYRQAPGKERELVATITRGGGNTYYADSVKGRFTISRDNAKNTVYLQMNSLKPEDTAVYYCAAYDSVQKYWILGFDYWGQGTQVTVSS”, for which the “polyreactivity (PSR sort gate)” value is on record as “low polyreactivity”. “QVQLVESGGGLVQAGGSLRLSCAASGFTFYTYAMGWYRQAPGKEMELVADISSGGSTNYADSVKGRFTISRDNAKNTVYLQMNSLKPEDTAVYYCSADYYFLDWYDYWGQGTQVTVSS”: the “polyreactivity (PSR sort gate)” value is on record as “low polyreactivity”.

In the case of “QVQLVESGGGLVQAGGSLRLSCDASGSIFSHYAMGWYRQAPGKERELVATITWRGGSNTNYADSVKGRFTISRDNAKNTVYLQMNSLKPEDTAVYYCAADGDGYYYWGQGTQVTVSS”, the “polyreactivity (PSR sort gate)” value was “low polyreactivity”. To “QVQLVESGGGLVQAGGSLRLSCAASGRTFSVYALGWYRPAPGKERELVAGITSGGSTNYADSVKGRFTMSRDNAKNTVYLQMNILKPEDTADYSCASENVYAVFLFVSIGDYWGQGTQETVSS” belongs “low polyreactivity”; to “QVQLVESGGGLVQAGGSLRLSCAASGGTFYVNDMGWYRQAPGKERELVATITYSGTSTYYADSVKGRFTISRDNAKNTVYLQMNSLKAEDTAVYYCATDVLLYFEPVNLDYWGQGTQVTVSS”, “low polyreactivity”; to “QVQLVESGGGLVQAGGSLRLSCAASGRIFRYNAMGWYRQAPGKERELVAAISRGGSSTYYADSVKGRFTISRDNAKNTVYLQMNSLKPEDTAVYYCNARSVVREFNYWGQGTQVTVSS”, “high polyreactivity”. In the case of “QVQLVESGGGIVQAGGSLRLICAASGFTFSYYAMAWYRQAPGKEREFVAAITRSGSTYYADSVKGRFTISRENAKNTVYLQMISLKPEDTSVYYCAARFLYRYDYWGQGTQVTVSS”, the “polyreactivity (PSR sort gate)” value is recorded as “high polyreactivity”.

With “QVQLVESGGGLVQAGGSLRLSCAASGSIFTRYAMGWYRQAPGKERELVATISFIGSSTYYADSVKGRFTISRDNAKNTVYLQMNSLKPEDTAVYSCAATGYARQYEYRYDYWGQGTQVTVSS”, the “polyreactivity (PSR sort gate)” value is “low polyreactivity”. Then “QVQLVESGGGLVQAGGSLRLSSAPSGSTIHTYTMGWYRQAPGKDRELVAGISRSGGTTYYADSVKGRFTISRDNAKNTVYLQMNSLKPEVTAVYDCNALSSKTDTYDYWGQGTQVTVSS”, with “high polyreactivity”.

On to “QVQLVESGGGLVQAGGSHRLSCAASGLTFFPYAMGWYRQAPGKERELVAAITTSDGTTYYADSVKGRFTISRDNAKNTVYLQMNSLKPEDTAVYYCAAVYSPRSVWWYDYWGQGTQVTVSS”, for which the “polyreactivity (PSR sort gate)” value was “low polyreactivity”.

With “QVQLVESGGGLVQAGGSLRLSCAASGFIFSANAMGWYRQAPGKERELVAVISWNGDGTYYADSVKGRFTISRDNAKNTVYLQMNSLKAEDTAVYYCAALSYAYRSQSRRYGYRFDYWGQGTQVTVSS”, the “polyreactivity (PSR sort gate)” value is listed as “high polyreactivity”. Regarding “QDQLVESGGGLVQAGGSLRLSCAASGRIFVYYVMGLYRQAPGKERELVAAITYSGGSTYYADSVKGRFTISRDNAKNTVYLQMNSLKPEDTAVYYCNNVDAFGIVRLYYWGQGTQVTVSS”, the “polyreactivity (PSR sort gate)” value was “low polyreactivity”. “QVQLVESGGRLVQAGGSLRLSCAASGITFYLYAMGWYRQAPGKERELVAAISSSGGSTYYADSVKGRFTISRDNEKNTVYLQMNSLKPEDTAVYYCAAVFYTSVTIYDYWGQGTQVTVSS”: the “polyreactivity (PSR sort gate)” value is listed as “high polyreactivity”. In the case of “QVQLVESGGGLVQAGGSLRLSCAASGRIFSYYAMGWYRQAPGKERELVAAIRWSGGRTYYADSVKGRFTISRDNAKNTVYLQMNSLKPEDTAVYYCAAEGAYRLAYDYWGQGTQVTVSS”, the “polyreactivity (PSR sort gate)” value was “high polyreactivity”. Regarding “QVQLVESGGGLVQAGGSLRLSFAASGSTFPVYTMGWYRQAPGKERELVAAITGSGGRTYYADSVKGRFTISRDNAKNTVYLQMNSLKPEDTAVYYCNAYPKGRYAAAFPGMDYWGQGTQVTVSS”, the “polyreactivity (PSR sort gate)” value is given as “high polyreactivity”. To “QVQLVESGGGLVQAGGSLRLSCAASGRTYNPYAMGWYRQAPGKERELVAVISSIGGSTYADSVTGRFTISRDNAKNTVYLQMNSLKTEDTAVFYCNRATFGQWGGDYWGQGTQVTVSS” belongs “high polyreactivity”; to “QVQLVESGGGLVQAGGSLRLSCAASGSTFGANPMGWYRQAPGKEREFVAAISGSGTTTYYADSVKGRFTISRDNAKNTVYLQMNSLKTEDTAVYYCAKTRKAHWLEYWGQGTQVTVSS”, “low polyreactivity”; to “QVQLVESGGGLVQAGGSLRLSCAASGSTFGNNAMGWYRQAAGKERELVAGINSGGSTTYADSVKGRFTISRDNAKNTVYLQMNSLKPEDTAVYYCAAVYYYYSWYSKHYYWGQGTQVTVSS”, “low polyreactivity”. To “QVQLVESGGGLVQAGGSLRISCASSGFTIWGYTMVWYRQAPGKERELVAAITSTGSTYYADSVKGRFTISRDNAKNTVYLQMNSLKPEDTAVYYCAAESYYGYDYWGQGTQVTVSS” belongs “low polyreactivity”. With “QVQLVESGGGLVQAGGSLRLSCAASGRTFHGYAMGWYRQAPGKERELVAAINASGGRTYYADSVKGRFTISRDNAKNTVYLQMNRLKPEDTAVYYCAVYSASFRYGLAYDYWGQGTQVTVSS”, the “polyreactivity (PSR sort gate)” value was “high polyreactivity”.

With “QVQLVESGGGLVQAGGSLRLSCAASGRTFVGYTMGWYRQAPGKERELVAAIDLSDGSTSYADSVKGRFTISRDNAKNTVYLQMNSLIPEDTAVYYCAKTWANVYAGAHDYWGLGTQVTVSS”, the “polyreactivity (PSR sort gate)” value is “low polyreactivity”.

As for “QVQLVESGGGLVQAGGSLRLSCAASGFTVYKYVKGWYRQAPGKERELVAAITTSGGSTYYADSVKGRFTISRDNPKNTVYLQMNSLKPEDTAVYYCNARSLHTSEGDYWGQGTQVTVSS”, the “polyreactivity (PSR sort gate)” value is listed as “low polyreactivity”. In the case of “QVLLQESGSGLVQAGGSLRLSCAASGTISTDIRIGLYRLAPRKEREFVASIDGCSTTYYADSVKGRFTISRDNAKNSVYLQMNSLKPEVTAMYYCAAREATEFYLYYWGQGTQVTVSS”, the “polyreactivity (PSR sort gate)” value is on record as “low polyreactivity”. Then “QVQLQESGGGLVQASGSPRLSCAASGNIFDADIMGWYRQAPGKQCELVASITDGGSTNYADSEKGRFTISSDNAKNTVYLQMNSLKPEDTAVYYCAAIAYPDIPTYFDYDSDYFYWGQGTHVTVSS”, with “high polyreactivity”. On to “QVHLVESGGGLVQAGGSLRLSCAASGFTFYYYAMGWYRQAPGKERELVATISRSVGSTYYADSVKGRFTISRDNAKNTVYLQMNSLKPEDTAVYYCAVGGYLRSVSYIRLGNYYWGQGTQVSVSS”, for which the “polyreactivity (PSR sort gate)” value is “high polyreactivity”. Consider “QVQLVESAGGLVQEGGSLRLSCAASGRTFYNAMGGYRQAPGKERELVAAISANGGSTTYADSVKGRFTISRDNAKNTVYLQMNSLKPEDTAVYYCNTYYWYSGSPYDYWGQGTQVTVSS”, for which the “polyreactivity (PSR sort gate)” value is “low polyreactivity”. Turning to “QVQLVESGGGLVQAGGSLRLSCAASGRIFWRNTMGWYRQAPGKERELVAAITRTGGSTYYADSVKGRFTISRDNAKNTVYLQMNSLKPEDTAVYYCAVYARWYGYGYGYWGQGTQVTVSS”, the “polyreactivity (PSR sort gate)” value is listed as “high polyreactivity”.

In the case of “QVQLVESGGGLVQAGGSLRLSCAASGSTFPSYAMGWYRPAPGKERELVAAINSGGGTNYADSVKGRFTISRDNAKNTVYLQMNSLKPEDTAVYYCAKSRYDYTKTEGGYWGQGTQVTVSS”, the “polyreactivity (PSR sort gate)” value is listed as “low polyreactivity”.
